# Source: IntAct's records for PubMed 17568776
# B1: RING finger and CHY zinc finger domain-containing protein 1 (Homo sapiens), Q96PM5 (parent)
# chain: MAATAREDGASGQERGQRGCEHYDRGCLLKAPCCDKLYTCRLCHDNNEDHQLDRFKVKEVQCINCEKIQHAQQTCEECSTLFGEYYCDICHLFDKDKKQYHCENCGICRIGPKEDFFHCLKCNLCLAMNLQGRHKCIENVSRQNCPICLEDIHTSRVVAHVLPCGHLLHRTCYEEMLKEGYRCPLCMHSALDMTRYWRQLDDEVAQTPMPSEYQNMTVDILCNDCNGRSTVQFHILGMKCKICESYNTAQAGGRRISLDQQ
# Variants of: B1
# Settings: with kcc2a_human CAMK2A
row,Variant,effect of a mutation on the interaction
1,S155A,disrupting interaction
2,T154A,disrupting interaction
